Test results reported in PMC9108607, “The intrinsically disordered CARDs‐Helicase linker in RIG‐I is a molecular gate for RNA proofreading”.

How the values were obtained:
Δ190-200 RIG-I = biological target: T1, Δ190-200 RIG-I (human, UniProt O95786 1-925, del190-200); assay: EMSA; streptavidin, ±2 mM ATP; oligomerizes with ATP; Buffer A: 50 mM MOPS pH 7.4, 5 mM DTT, 5 mM MgCl2, 0.01% Tween20, 25°C (fluorimetry: 15 nM RNA; ATPase: 15 nM protein, 1 mM ATP); EMSA in Buffer A at 4°C; conditions: protein: recombinant; tags: 6xHis-SUMO removed by Ulp1; label: 3' DY547 and 5' biotin on strand 2; blunt
T1 sequence: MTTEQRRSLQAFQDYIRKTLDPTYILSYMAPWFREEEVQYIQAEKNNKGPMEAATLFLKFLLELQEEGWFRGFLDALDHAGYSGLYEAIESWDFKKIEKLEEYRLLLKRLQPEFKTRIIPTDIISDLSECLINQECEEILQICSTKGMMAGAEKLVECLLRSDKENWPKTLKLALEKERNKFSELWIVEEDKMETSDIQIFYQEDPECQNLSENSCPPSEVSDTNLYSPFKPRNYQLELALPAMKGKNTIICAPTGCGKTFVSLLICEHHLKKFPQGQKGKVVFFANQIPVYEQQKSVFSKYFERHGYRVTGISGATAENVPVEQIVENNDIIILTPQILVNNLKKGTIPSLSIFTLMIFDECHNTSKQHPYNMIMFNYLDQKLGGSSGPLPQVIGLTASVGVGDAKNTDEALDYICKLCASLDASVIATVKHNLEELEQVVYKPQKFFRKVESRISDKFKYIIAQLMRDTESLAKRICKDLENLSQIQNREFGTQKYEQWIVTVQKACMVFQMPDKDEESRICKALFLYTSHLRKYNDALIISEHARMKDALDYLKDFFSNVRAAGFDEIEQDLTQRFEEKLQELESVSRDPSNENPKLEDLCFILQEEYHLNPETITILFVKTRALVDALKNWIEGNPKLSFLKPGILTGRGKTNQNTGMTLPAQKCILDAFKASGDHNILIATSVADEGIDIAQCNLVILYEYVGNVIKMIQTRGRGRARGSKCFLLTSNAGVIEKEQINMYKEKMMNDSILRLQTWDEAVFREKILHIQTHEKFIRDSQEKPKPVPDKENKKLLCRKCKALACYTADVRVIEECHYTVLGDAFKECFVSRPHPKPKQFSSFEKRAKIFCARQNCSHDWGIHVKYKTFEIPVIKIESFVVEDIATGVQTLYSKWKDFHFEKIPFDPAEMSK

WT RIG-I = biological target: T2, WT RIG-I (human, UniProt O95786 1-925); assay: RNA-dependent ATPase titration (KD,app); 1 mM ATP; Buffer A: 50 mM MOPS pH 7.4, 5 mM DTT, 5 mM MgCl2, 0.01% Tween20, 25°C (fluorimetry: 15 nM RNA; ATPase: 15 nM protein, 1 mM ATP); EMSA in Buffer A at 4°C; conditions: protein: recombinant; tags: 6xHis-SUMO removed by Ulp1; label: 3' DY547 and 5' biotin on strand 2; blunt
T2 sequence: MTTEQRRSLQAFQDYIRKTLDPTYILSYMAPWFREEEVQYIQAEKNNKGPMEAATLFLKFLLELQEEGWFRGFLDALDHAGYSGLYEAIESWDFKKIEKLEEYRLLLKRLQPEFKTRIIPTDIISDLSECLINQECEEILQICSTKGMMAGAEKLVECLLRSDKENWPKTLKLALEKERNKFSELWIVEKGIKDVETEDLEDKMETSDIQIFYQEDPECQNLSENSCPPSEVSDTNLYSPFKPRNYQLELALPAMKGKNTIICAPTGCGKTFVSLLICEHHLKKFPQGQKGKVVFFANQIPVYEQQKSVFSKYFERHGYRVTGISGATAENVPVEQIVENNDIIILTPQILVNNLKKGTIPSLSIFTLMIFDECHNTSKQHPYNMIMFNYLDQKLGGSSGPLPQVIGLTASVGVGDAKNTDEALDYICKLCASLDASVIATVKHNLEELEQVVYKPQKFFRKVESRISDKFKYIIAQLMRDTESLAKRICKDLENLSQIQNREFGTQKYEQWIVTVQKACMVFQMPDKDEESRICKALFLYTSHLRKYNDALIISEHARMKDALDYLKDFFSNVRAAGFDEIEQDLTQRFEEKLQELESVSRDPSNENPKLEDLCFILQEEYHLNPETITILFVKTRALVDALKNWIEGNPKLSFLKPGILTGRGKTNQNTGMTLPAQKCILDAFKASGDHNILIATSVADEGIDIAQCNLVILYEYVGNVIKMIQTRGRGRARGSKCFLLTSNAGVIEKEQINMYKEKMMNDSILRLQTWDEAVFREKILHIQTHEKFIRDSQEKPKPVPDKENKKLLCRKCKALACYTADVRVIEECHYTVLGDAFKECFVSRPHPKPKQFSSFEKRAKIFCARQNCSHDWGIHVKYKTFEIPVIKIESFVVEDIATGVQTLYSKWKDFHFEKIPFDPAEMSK

B1: 5'ppp ds27 (dsRNA)
RNA 1: AUACGUCCUGAUAGUUAGUAUCCAUCG
RNA 2: CGAUGGAUACUAACUAUCAGGACGUAU
modifications: 5'ppp on strand 1
binding result (Δ190-200 RIG-I): binds | apparent KD relative to Hel-CTD (WT RIG-I): ~5 fold weaker than Hel-CTD
